Test results as given in US20160201097A1, “Materials and Methods of Producing 7-Carbon Monomers” (INVISTA North America S.á.r.l., priority 2014, published 2016).

Columns and labels:
[1] = carboxylate reductase activity: N7-acetyl-7-aminoheptanoate to N7-acetyl-7-aminoheptanal (NADPH consumption, A340); format: biochemical; conditions: purified enzyme enhanced by sfp gene product, 2 mM N7-acetyl-7-aminoheptanoate, pH 7.5, room temperature, 20 min; against the empty vector control (FIG. 10)
Method: The activity of each of the N-terminal His-tagged carboxylate reductases of SEQ ID NOs: 3, 5, and 6 (see Examples 2 and 3, and FIG. 6) for converting N7-acetyl-7-aminoheptanoate to N7-acetyl-7-aminoheptanal was assayed in triplicate in a buffer composed of a final concentration of 50 mM HEPES buffer (pH=7.5), 2 mM N7-acetyl-7-aminoheptanoate, 10 mM MgCl2, 1 mM ATP, and 1 mM NADPH. The assays were initiated by adding purified carboxylate reductase and phosphopantetheine transferase or the empty vector control to the assay buffer containing the N7-acetyl-7-aminoheptanoate then incubated at room temperature for 20 min. The consumption of NADPH was monitored by absorbance at 340 nm.

[2] = carboxylate reductase activity: pimelate to pimelate semialdehyde (NADPH consumption, A340); format: biochemical; conditions: purified enzyme enhanced by sfp gene product, 2 mM pimelate, pH 7.5, room temperature, 20 min; against the empty vector control (FIG. 8)
Method: A nucleotide sequence encoding a HIS-tag was added to the nucleic acid sequences from Segniliparus rugosus and Segniliparus rotundus that encode the carboxylate reductases of SEQ ID NOs: 4 (EFV11917.1) and 6 (ADG98140.1), respectively (see FIG. 6), such that N-terminal HIS tagged carboxylate reductases could be produced. Each of the modified genes was cloned into a pET Duet expression vector along with a sfp gene encoding a HIS-tagged phosphopantetheine transferase from Bacillus subtilis, both under the T7 promoter. Each expression vector was transformed into a BL21[DE3] E. coli host and the resulting recombinant E. coli strains were cultivated at 37° C. in a 250 mL shake flask culture containing 50 mL LB media and antibiotic selection pressure, with shaking at 230 rpm. Each culture was induced overnight at 37° C. using an auto-induction media.
The pellet from each induced shake flask culture was harvested via centrifugation. Each pellet was resuspended and lysed via sonication, and the cell debris was separated from the supernatant via centrifugation. […]
Enzyme activity assays (i.e., from pimelate to pimelate semialdehyde) were performed in triplicate in a buffer composed of a final concentration of 50 mM HEPES buffer (pH=7.5), 2 mM pimelate, 10 mM MgCl2, 1 mM ATP and 1 mM NADPH. […] The consumption of NADPH was monitored by absorbance at 340 nm. […]

acceptance of pimelate as substrate (NADPH consumption) [2]	Molecule	acceptance of N7-acetyl-7-aminoheptanoate as substrate (NADPH consumption) [1]
–	SEQ ID NO: 3: Mycobacterium smegmatis carboxylate reductase, N-terminal HIS tagged (protein, listed as Mycobacterium smegmatis, N-terminal His tag, Mycobacterium smegmatis carboxylate reductase, N-terminal HIS tagged) MTSDVHDATDGVTETALDDEQSTRRIAELYATDPEFAAAAPLPAVVDAAHKPGLRLAEILQTLFTGYGDRPALGYRARELATDEGGRTVTRLLPRFDTLTYAQVWSRVQAVAAALRHNFAQPIYPGDAVATIGFASPDYLTLDLVCAYLGLVSVPLQHNAPVSRLAPILAEVEPRILTVSAEYLDLAVESVRDVNSVSQLVVFDHHPEVDDHRDALARAREQLAGKGIAVTTLDAIADEGAGLPAEPIYTADHDQRLAMILYTSGSTGAPKGAMYTEAMVARLWTMSFITGDPTPVINVNFMPLNHLGGRIPISTAVQNGGTSYFVPESDMSTLFEDLALVRPTELGLVPRVADMLYQHHLATVDRLVTQGADELTAEKQAGAELREQVLGGRVITGFVSTAPLAAEMRAFLDITLGAHIVDGYGLTETGAVTRDGVIVRPPVIDYKLIDVPELGYFSTDKPYPRGELLVRSQTLTPGYYKRPEVTASVFDRDGYYHTGDVMAETAPDHLVYVDRRNNVLKLAQGEFVAVANLEAVFSGAALVRQIFVYGNSERSFLLAVVVPTPEALEQYDPAALKAALADSLQRTARDAELQSYEVPADFIVETEPFSAANGLLSGVGKLLRPNLKDRYGQRLEQMYADIAATQANQLRELRRAAATQPVIDTLTQAAATILGTGSEVASDAHFTDLGGDSLSALTLSNLLSDFFGFEVPVGTIVNPATNLAQLAQHIEAQRTAGDRRPSFTTVHGADATEIRASELTLDKFIDAETLRAAPGLPKVTTEPRTVLLSGANGWLGRFLTLQWLERLAPVGGTLITIVRGRDDAAARARLTQAYDTDPELSRRFAELADRHLRVVAGDIGDPNLGLTPEIWHRLAAEVDLVVHPAALVNHVLPYRQLFGPNVVGTAEVIKLALTERIKPVTYLSTVSVAMGIPDFEEDGDIRTVSPVRPLDGGYANGYGNSKWAGEVLLREAHDLCGLPVATFRSDMILAHPRYRGQVNVPDMFTRLLLSLLITGVAPRSFYIGDGERPRAHYPGLTVDFVAEAVTTLGAQQREGYVSYDVMNPHDDGISLDVFVDWLIRAGHPIDRVDDYDDWVRRFETALTALPEKRRAQTVLPLLHAFRAPQAPLRGAPEPTEVFHAAVRTAKVGPGDIPHLDEALIDKYIRDLREFGLI	accepted N7-acetyl-7-aminoheptanoate as substrate
accepted pimelate as substrate	SEQ ID NO: 4: Segniliparus rugosus carboxylate reductase, N-terminal HIS tagged (protein, listed as Segniliparus rugosus, N-terminal His tag, Segniliparus rugosus carboxylate reductase, N-terminal HIS tagged) MGDGEERAKRFFQRIGELSATDPQFAAAAPDPAVVEAVSDPSLSFTRYLDTLMRGYAERPALAHRVGAGYETISYGELWARVGAIAAAWQADGLAPGDFVATVGFTSPDYVAVDLAAARSGLVSVPLQAGASLAQLVGILEETEPKVLAASASSLEGAVACALAAPSVQRLVVFDLRGPDASESAADERRGALADAEEQLARAGRAVVVETLADLAARGEALPEAPLFEPAEGEDPLALLIYTSGSTGAPKGAMYSQRLVSQLWGRTPVVPGMPNISLHYMPLSHSYGRAVLAGALSAGGTAHFTANSDLSTLFEDIALARPTFLALVPRVCEMLFQESQRGQDVAELRERVLGGRLLVAVCGSAPLSPEMRAFMEEVLGFPLLDGYGSTEALGVMRNGIIQRPPVIDYKLVDVPELGYRTTDKPYPRGELCIRSTSLISGYYKRPEITAEVFDAQGYYKTGDVMAEIAPDHLVYVDRSKNVLKLSQGEFVAVAKLEAAYGTSPYVKQIFVYGNSERSFLLAVVVPNAEVLGARDQEEAKPLIAASLQKIAKEAGLQSYEVPRDFLIETEPFTTQNGLLSEVGKLLRPKLKARYGEALEARYDEIAHGQADELRALRDGAGQRPVVETVVRAAVAISGSEGAEVGPEANFADLGGDSLSALSLANLLHDVFEVEVPVRIIIGPTASLAGIAKHIEAERAGASAPTAASVHGAGATRIRASELTLEKFLPEDLLAAAKGLPAADQVRTVLLTGANGWLGRFLALEQLERLARSGQDGGKLICLVRGKDAAAARRRIEETLGTDPALAARFAELAEGRLEVVPGDVGEPKFGLDDAAWDRLAEEVDVIVHPAALVNHVLPYHQLFGPNVVGTAEIIRLAITAKRKPVTYLSTVAVAAGVEPSSFEEDGDIRAVVPERPLGDGYANGYGNSKWAGEVLLREAHELVGLPVAVFRSDMILAHTRYTGQLNVPDQFTRLVLSLLATGIAPKSFYQQGAAGERQRAHYDGIPVDFTAEAITTLGAEPSWFDGGAGFRSFDVFNPHHDGVGLDEFVDWLIEAGHPISRIDDHKEWFARFETAVRGLPEAQRQHSLLPLLRAYSFPHPPVDGSVYPTGKFQGAVKAAQVGSDHDVPHLGKALIVKYADDLKALGLL	–
–	SEQ ID NO: 5: Mycobacterium massiliense carboxylate reductase, N-terminal HIS tagged (protein, N-terminal His tag; Mycobacterium massiliense, Mycobacterium massiliense carboxylate reductase, N-terminal HIS tagged) MTNETNPQQEQLSRRIESLRESDPQFRAAQPDPAVAEQVLRPGLHLSEAIAALMTGYAERPALGERARELVIDQDGRTTLRLLPRFDTTTYGELWSRTTSVAAAWHHDATHPVKAGDLVATLGFTSIDYTVLDLAIMILGGVAVPLQTSAPASQWTTILAEAEPNTLAVSIELIGAAMESVRATPSIKQVVVFDYTPEVDDQREAFEAASTQLAGTGIALETLDAVIARGAALPAAPLYAPSAGDDPLALLIYTSGSTGAPKGAMHSENIVRRWWIREDVMAGTENLPMIGLNFMPMSHIMGRGTLTSTLSTGGTGYFAASSDMSTLFEDMELIRPTALALVPRVCDMVFQRFQTEVDRRLASGDTASAEAVAAEVKADIRDNLFGGRVSAVMVGSAPLSEELGEFIESCFELNLTDGYGSTEAGMVFRDGIVQRPPVIDYKLVDVPELGYFSTDKPHPRGELLLKTDGMFLGYYKRPEVTASVFDADGFYMTGDIVAELAHDNIEIIDRRNNVLKLSQGEFVAVATLEAEYANSPVVHQIYVYGSSERSYLLAVVVPTPEAVAAAKGDAAALKTTIADSLQDIAKEIQLQSYEVPRDFIIEPQPFTQGNGLLTGIAKLARPNLKAHYGPRLEQMYAEIAEQQAAELRALHGVDPDKPALETVLKAAQALLGVSSAELAADAHFTDLGGDSLSALSFSDLLRDIFAVEVPVGVIVSAANDLGGVAKFVDEQRHSGGTRPTAETVHGAGHTEIRAADLTLDKFIDEATLHAAPSLPKAAGIPHTVLLTGSNGYLGHYLALEWLERLDKTDGKLIVIVRGKNAEAAYGRLEEAFDTGDTELLAHFRSLADKHLEVLAGDIGDPNLGLDADTWQRLADTVDVIVHPAALVNHVLPYNQLFGPNVVGTAEIIKLAITTKIKPVTYLSTVAVAAYVDPTTFDEESDIRLISAVRPIDDGYANGYGNAKWAGEVLLREAHDLCGLPVAVFRSDMILAHSRYTGQLNVPDQFTRLILSLIATGIAPGSFYQAQTTGERPLAHYDGLPGDFTAEAITTLGTQVPEGSEGFVTYDCVNPHADGISLDNFVDWLIEAGYPIARIDNYTEWFTRFDTAIRGLSEKQKQHSLLPLLHAFEQPSAAENHGVVPAKRFQHAVQAAGIGPVGQDGTTDIPHLSRRLIVKYAKDLEQLGLL	accepted N7-acetyl-7-aminoheptanoate as substrate
